Literature values in article PMC2895966.

Molecular target: Pyrrhocoricin (Pyrrhocoris apterus) (UniProt P37362)
Sequence (P37362 whole entry): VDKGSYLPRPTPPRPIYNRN

DnaK SBD, sequence (P0A6Y8 389-607): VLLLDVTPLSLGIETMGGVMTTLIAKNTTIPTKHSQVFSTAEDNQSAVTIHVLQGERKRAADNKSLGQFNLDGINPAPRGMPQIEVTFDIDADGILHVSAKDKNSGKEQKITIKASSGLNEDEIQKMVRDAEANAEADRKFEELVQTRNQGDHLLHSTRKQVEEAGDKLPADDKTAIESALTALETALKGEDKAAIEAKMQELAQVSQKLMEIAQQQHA

Kd: 50 µM
Substance: DnaK SBD (from UniProt P0A6Y8)
